# Source: article PMC9582512 (2022)
# How the values were obtained:
# [1] = molecular target: IgG4 F127 pre-complexed with dimeric Fel d 1 (human | cat, UniProt P30438 23-92; P30440 18-109); assay: BLI; pre-complexed with Fel d 1
# [2] = molecular target: IgG1 F127 pre-complexed with dimeric Fel d 1 (human | cat, UniProt P30438 23-92; P30440 18-109); assay: BLI; pre-complexed with Fel d 1
binder,measurement,setting,value
"human recombinant biotinylated FcγRIIb (CD32b) (receptor, biotin (biotinylated; site not stated)) TPAAPPKAVLKLEPQWINVLQEDSVTLTCRGTHSPESDSIQWFHNGNLIPTHTQPSYRFKANNNDSGEYTCQTGQTSLSDPVHLTVLSEWLVLQTPHLEFQEGETIVLRCHSWKDKPLVKVTFFQNGKSKKFSRSDPNFSIPQANHSHSGDYHCTGNIGYTLYSSKPVTITVQAP",koff,[1],0.000126 s⁻¹
same,koff,[2],0.000279 s⁻¹
